{"source": "paper PMC9790621", "proteins": {"B1": {"name": "Mtb GMPR (Mtb GuaB1) (Mycobacterium tuberculosis H37Rv) (protein)", "chain": "MRFLDGHPPGYDLTYNDVFIVPNRSEVASRFDVDLSTADGSGTTIPVVVANMTAVAGRRMAETVARRGGIVILPQDLPIPAVKQTVAFVKSRDLVLDTPVTLAPDDSVSDAMALIHKRAHGVAVVILEGRPIGLVRESSCLGVDRFTRVRDIAVTDYVTAPAGTEPRKIFDLLEHAPVDVAVLTDADGTLAGVLSRTGAIRAGIYTPATDSAGRLRIGAAVGINGDVGAKARALAEAGVDVLVIDTAHGHQVKTLDAIKAVSALDLGLPLAAGNVVSAEGTRDLLKAGANVVKVGVGPGAMCTTRMMTGVGRPQFSAVLECASAARQLGGHIWADGGIRHPRDVALALAAGASNVMIGSWFAGTYESPGDLMRDRDDQPYKESYGMASKRAVVARTGADNPFDRARKALFEEGISTSRMGLDPDRGGVEDLIDHITSGVRSTCTYVGASNLAELHERAVVGVQSGAGFAEGHPLPAGW"}}, "key": {"purified protein [1]": {"substrate": "NC(=O)C1=CN([C@@H]2O[C@H](COP(=O)(O)OP(=O)(O)OC[C@H]3O[C@@H](n4cnc5c(N)ncnc54)[C@H](OP(=O)(O)O)[C@@H]3O)[C@@H](O)[C@H]2O)C=CC1", "assay": "purified protein", "conditions": "pH 7.8; 25.0 °C"}, "purified protein [2]": {"substrate": "Nc1nc2c(ncn2[C@@H]2O[C@H](COP(=O)(O)O)[C@@H](O)[C@H]2O)c(=O)[nH]1", "assay": "purified protein", "conditions": "pH 7.8; 25.0 °C"}}, "data": [{"protein": "B1", "values": [{"measurement": "K0.5", "setting": "purified protein [1]", "result": "63 ± 7", "unit": "µM"}, {"measurement": "K0.5", "setting": "purified protein [2]", "result": "10.5 ± 1.17", "unit": "µM"}]}]}
